Data reported in patent US20130330324A1 (Novartis, published 2013).
Numbering of substitutions follows the chain as printed.

B1: MOR09823 (antibody, human IgG1, kappa, V domains shown)
VH: QVQLVESGGGLVQPGGSLRLSCAASGFTFSSYAMSWVRQAPGKGLEWVSVTGAVGRTYYPDSVKGRFTISRDNSKNTLYLQMNSLRAEDTAVYYCARWGDEGFDIWGQGTLVTVSS
VL: DIQMTQSPSSLSASVGDRVTITCRASQGISNWLAWYQQKPGKAPKLLIYGASSLQSGVPSRFSGSGSGTDFTLTISSLQPEDFAVYYCQQYSSFPTTFGQGTKVEIKR
notes: tested as IgG
B2: MOR10703 A50V_N52G (antibody, human IgG1, kappa, V domains shown)
VH: EVQLLESGGGLVQPGGSLRLSCAASGFTFSSYAMSWVRQAPGKGLEWVSVIGSQGKSTYYADSVKGRFTISRDNSKNTLYLQMNSLRAEDTAVYYCARWGDEGFDIWGQGTLVTVSS
VL: B1 VL with V85T
notes: Variant of MOR10703; IgG1/kappa
B3: MOR09825 (antibody, human IgG1, kappa, V domains shown)
VH: B2 VH with E1Q, L5V, V50A, G52N
VL: B1 VL
notes: tested as IgG
B4: MOR10702 (antibody, human IgG1, kappa, V domains shown)
VH: B2 VH with G52S, S53A, Q54W, K56H, S57V, T58K
VL: B1 VL with V85T
notes: tested as IgG
B5: MOR10703 A50V_N52S (antibody, human IgG1, kappa, V domains shown)
VH: B2 VH with G52S
VL: B1 VL with V85T
notes: as for B2
B6: MOR10701 (antibody, human IgG1, kappa, V domains shown)
VH: B2 VH with I51T, S53A, Q54V, K56R, A61P
VL: B1 VL with V85T
notes: tested as IgG
B7: MOR12610 (antibody, human IgG1, kappa, V domains shown)
VH: B1 VH with V50G, A53P, V54Y, R56G
VL: B1 VL
notes: tested as IgG
B8: MOR12609 (antibody, human IgG1, kappa, V domains shown)
VH: B2 VH with E1Q, L5V, G52N, S53G, Q54L, K56Y, S57T, Y59F
VL: B1 VL
notes: tested as IgG
B9: MOR10703 N52G (antibody, human IgG1, kappa, V domains shown)
VH: B2 VH with V50A
VL: B1 VL with V85T
notes: as for B2
B10: MOR10701 R55K (antibody, human IgG1, kappa, V domains shown)
VH: B2 VH with I51T, S53A, Q54V, A61P
VL: B1 VL with V85T
notes: Variant of MOR10701; IgG1/kappa
B11: MOR09824 (antibody, human IgG1, kappa, V domains shown)
VH: B2 VH with E1Q, L5V, G52S, S53A, Q54W, K56H, S57V, T58K
VL: B1 VL
notes: tested as IgG
B12: MOR10703 (antibody, human IgG1, kappa, V domains shown)
VH: B2 VH with V50A, G52N
VL: B1 VL with V85T
notes: tested as IgG
B13: MOR10701 R55G (antibody, human IgG1, kappa, V domains shown)
VH: B2 VH with I51T, S53A, Q54V, K56G, A61P
VL: B1 VL with V85T
notes: as for B10
B14: MOR09974 (antibody, human IgG1, kappa, V domains shown)
VH: B2 VH with E1Q, L5V, G52N, S53P, Q54S, K56N, S57F, Y59N
VL: B1 VL
notes: tested as IgG
B15: MOR10703 N52S (antibody, human IgG1, kappa, V domains shown)
VH: B2 VH with V50A, G52S
VL: B1 VL with V85T
notes: as for B2

Columns and labels:
[1] = target: T1, Human HER3, endogenous, on human cancer cell lines (human, UniProt P21860 20-1342); assay: cell-based or functional assay
[2] = target: T1, Human HER3, endogenous, on human cancer …; assay: cell-based or functional assay; remark: listed apart in the source
[3] = target: T1, Human HER3, endogenous, on human cancer …; assay: cell-based or functional assay; remark: listed apart in the source
[4] = target: T1, Human HER3, endogenous, on human cancer …; assay: FACS titration on SK-Br-3 cells
[5] = target: T2, Hu HER3 (CD33-[Human HER3, residues 20-640]-TAG) (human, UniProt P21860 20-640); assay: solution equilibrium titration (SET), IgG
T2 construct: N-terminal CD33 leader is a secretion signal and is left out; also called hu HER3-Tag; HER3-Tag; not shown: C-terminal TAG (e.g. FLAG TAG)

[6] = target: T3, Cyno HER3 (CD33-[Cyno HER3, residues 20-643]-TAG) (cynomolgus, UniProt G7PIG5 20-643); assay: solution equilibrium titration (SET), IgG
T3 construct: range 20-643; CD33 leader left out as signal; also called cy HER3-Tag; not shown: C-terminal TAG (e.g. FLAG TAG)

[7] = target: T4, Mu HER3 (CD33-[Murine HER3, residues 20-643]-TAG) (mouse, UniProt Q61526 20-643); assay: solution equilibrium titration (SET), IgG
T4 construct: range 20-643; CD33 leader left out as signal; also called mu HER3-Tag; not shown: C-terminal TAG (e.g. FLAG TAG)

[8] = target: T5, Rat HER3 (CD33-[Rat HER3, residues 20-643]-TAG) (rat, UniProt Q62799 20-643); assay: solution equilibrium titration (SET), IgG
T5 construct: range 20-643; CD33 leader left out as signal; also called ra HER3-Tag; not shown: C-terminal TAG (e.g. FLAG TAG)

[9] = target: T6, HER3 K267A (CD33-[Human HER3, residues 20-640, K267A]-TAG) (human, UniProt P21860 20-640); assay: ELISA titration, mutant HER3-Tag coated, antibody titrated, OD450
T6 construct: CD33 leader left out as signal; also called HER3 K267A-Tag; not shown: C-terminal TAG

[10] = target: T7, HER3 L268A (CD33-[Human HER3, residues 20-640, L268A]-TAG) (human, UniProt P21860 20-640); assay: as above
T7 construct: CD33 leader left out as signal; also called HER3 L268A-Tag; not shown: C-terminal TAG

[11] = target: T2, Hu HER3 (CD33-[Human HER3, residues …); assay: ELISA titration, wild-type HER3-Tag coated, antibody titrated, OD450

MCF7 pHER3 % inhibition [1]	MCF7 pHER3 IC50 [1]	SK-Br-3 pHER3 % inhibition [1]	SK-Br-3 pHER3 IC50 [1]	BT-474 pAkt (S473) % inhibition [2]	SK-Br-3 pAkt (S473) % inhibition [2]	SK-Br-3 pAkt (S473) IC50 [2]	BT-474 proliferation % inhibition at 10 µg/ml IgG [3]	MCF7 (neuregulin stimulated) proliferation % inhibition at 10 µg/ml IgG [3]	SK-Br-3 proliferation % inhibition at 10 µg/ml IgG [3]	EC50 [4]	Kd [5]	Kd [6]	Kd [7]	Kd [8]	MCF7 pAkt (S473) IC50 [2]	binding result [9]	binding result [10]	EC50 (read off the curve) [11]	Binder
89%	181 pM	59%	56 pM	57%	92%	55 pM	39.8%	82%	39%	0.63 nM	0.009 nM	0.004 nM	0.002 nM	0.011 nM					B1
											0.022 nM								B2
80%	399 pM	66%	169 pM	69%	91%	156 pM	37.2%	63%	41%	0.839 nM	0.025 nM	0.056 nM	0.024 nM	0.096 nM	294 pM				B3
				55%			43.8%				0.003 nM	0.003 nM	0.005 nM	0.006 nM					B4
											0.016 nM								B5
		74%	370 pM	59%			43.6%				0.004 nM	0.004 nM	0.006 nM	0.01 nM					B6
84%	126 pM	75%	192 pM								0.037 nM								B7
86%	5 pM	71%	241 pM								0.01 nM								B8
											0.06 nM								B9
											0.011 nM								B10
91%	103 pM	64%	110 pM	46%	93%	62 pM	36.8%	82%	33%	0.324 nM	0.003 nM	0.003 nM	0.002 nM	0.007 nM					B11
80%	333 pM	69%	167 pM	62%	89%	70 pM	41.6%	81%	35%	2.45 nM	0.026 nM	0.023 nM	0.02 nM	0.04 nM	449 pM	no binding	no binding	~0.3 nM	B12
											0.018 nM								B13
69%	3070 pM	67%	1930 pM		85%	814 pM		20%	35%		0.35 nM	0.2 nM	0.12 nM						B14
											0.057 nM								B15
